Experimental data from patent publication US20070082400A1.

Target: human CD40L protein translated from transfected CD40L mRNA (pCR2.1 CD40L WT, >100 nucleotide polyA tail) (human) (UniProt P29965)
Assay: cell-based or functional assay

Chain of UniProt P29965 (P29965 whole entry): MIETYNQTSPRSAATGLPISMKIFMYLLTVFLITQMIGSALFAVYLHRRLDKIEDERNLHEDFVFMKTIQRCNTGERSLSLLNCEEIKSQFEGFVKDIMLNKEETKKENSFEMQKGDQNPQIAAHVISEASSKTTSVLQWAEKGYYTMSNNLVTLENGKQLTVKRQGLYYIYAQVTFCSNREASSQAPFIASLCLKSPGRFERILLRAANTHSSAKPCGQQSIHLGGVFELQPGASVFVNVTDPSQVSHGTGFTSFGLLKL

- IL-12p70 (pg/ml), 'Cocktail' matured and reactivated DCs co-cultured with CD40L mRNA-transfected HeLa cells plus IFN-gamma plus 24-31: 2.5 pg/mL
- IL-12p70 release by CD40L mRNA-transfected DCs cultured with IFN-gamma and 10 or 50 ug/ml blocking anti-CD40L antibody: 50%
Substance: blocking CD40L monoclonal antibody 24-31 (eBioscience)
